This is an account of results in publication PMC9881170.

Data set [1] concerns the target 55S mitoribosome (re-associated);mtIF2;mtIF3 (Homo sapiens (HEK293S TetR GnTI-);Homo sapiens;Homo sapiens) (UniProt P46199+Q9H2K0). As to the kind of experiment: sucrose gradient co-sedimentation, Cy3 fluorescence. The following applies: + E. coli fMet-tRNAfMet; 200 nM 55S or 28S, 240 nM mtIF2, 240 nM mtIF3, 240 nM fMet-tRNAfMet, 400 nM mRNA; 37 C 30 min (then ice 15 min for mRNA binding); filter wash with 20 mM Mg2+ ….
Sequence of UniProt P46199 (P46199 whole entry, looked up, tested part not stated): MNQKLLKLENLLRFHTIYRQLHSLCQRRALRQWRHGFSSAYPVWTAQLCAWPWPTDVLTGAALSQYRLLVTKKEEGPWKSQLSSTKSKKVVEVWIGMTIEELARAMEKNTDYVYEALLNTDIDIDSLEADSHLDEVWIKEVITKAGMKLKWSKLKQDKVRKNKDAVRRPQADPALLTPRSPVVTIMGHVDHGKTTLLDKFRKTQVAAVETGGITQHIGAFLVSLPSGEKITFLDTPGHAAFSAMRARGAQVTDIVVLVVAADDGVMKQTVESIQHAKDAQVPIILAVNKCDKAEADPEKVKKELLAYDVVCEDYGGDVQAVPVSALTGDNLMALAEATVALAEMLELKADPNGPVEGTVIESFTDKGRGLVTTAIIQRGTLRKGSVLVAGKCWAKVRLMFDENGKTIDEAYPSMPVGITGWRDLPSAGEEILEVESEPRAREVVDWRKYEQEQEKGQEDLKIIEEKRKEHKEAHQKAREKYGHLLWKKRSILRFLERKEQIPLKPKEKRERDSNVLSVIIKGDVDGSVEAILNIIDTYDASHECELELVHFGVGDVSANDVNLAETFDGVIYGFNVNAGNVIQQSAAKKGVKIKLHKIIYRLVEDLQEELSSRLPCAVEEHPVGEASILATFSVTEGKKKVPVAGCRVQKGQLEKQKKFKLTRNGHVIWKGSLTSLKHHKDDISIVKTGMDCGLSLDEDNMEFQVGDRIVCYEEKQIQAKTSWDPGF

The target of data set [2] is 55S mitoribosome, subunits crosslinked;mtIF2 (Homo sapiens (HEK293S TetR GnTI-);Homo sapiens) (UniProt P46199). Described as above. The following applies: + E. coli fMet-tRNAfMet; no mtIF3; 200 nM 55S or 28S, 240 nM mtIF2, 240 nM mtIF3, 240 nM fMet-tRNAfMet, 400 nM mRNA; 37 C 30 min (then ice 15 min for mRNA binding); filter wash with 20 mM Mg2+ ….
Data set [3] concerns the target 55S mitoribosome (crude);mtIF2;mtIF3 (bovine (liver);Homo sapiens;Homo sapiens) (UniProt P46199+Q9H2K0). As to the kind of experiment: co-sedimentation. The following applies: 200 nM 55S or 28S, 240 nM mtIF2, 240 nM mtIF3, 240 nM fMet-tRNAfMet, 400 nM mRNA, 37 C 30 min (then ice 15 min for mRNA binding), filter wash with 20 mM Mg2+ ….

For “AUGGCACAUGCAGCGCAAGUAGGUCUACAA [MTCO2 mRNA first 30 nt]”, the binding signal (% of 55S with mRNA bound) in data set [1] worked out at 50; in data set [2], 25. For Phe-tRNAPhe, the binding signal (% of 55S with [3H]-Phe-tRNAPhe) in data set [3] (+ EF-Tu, 30-nt leaderless mRNA S2, fMet-tRNAfMet) was determined as 22.

Take fMet-tRNAfMet (35S): in data set [3] (+ 30-nt leaderless mRNA S2, EF-Tu, Phe-tRNAPhe), the binding signal (% of 55S with [35S]-fMet-tRNAfMet) was found to be 27.
